41 sequences from the nanobody polyreactivity screen of Harvey et al. (2022) can be followed below.

The series is described as follows: yeast display, Sf9 membrane polyspecificity reagent, FACS + sequencing; frameworks hold sequencing errors. The gist of the method:
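Polyreactivity labels are assigned by the sorting gate from which each nanobody was recovered. The gates were low and high (top ~1%), set on anti-HA fluorescence for expression and streptavidin fluorescence for reagent binding. Before sorting, galactose-induced (36–48 hours) yeast display cells were stained for 1 hour at 4 °C with 10% biotinylated, detergent-solubilized Sf9 membrane reagent.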
In the case of “QVQLVESGGGLVQAGGSLRLSCAASGSIFWLYAMGWYRQAPGKERELVAAIDSGDSTKYADSVKGRFTISRDNAKNTVYLQMNSLKPEDTAVYYCNVRLGDRFFRHDYWGQGTQVTVSS”, the “polyreactivity (PSR sort gate)” value is “low polyreactivity”.

With “QVQLVESGGGLVQAGGSLRLSCAASGSIFWLYAMGWYRQAPGKERELVAAMSWSGTSTNYADSVKGRFTISRDIAKNTVYLQMNRLKPEDTAVYYCAKRWNNQKLFGYEEEYDYWGQGTQVTGSS”, the “polyreactivity (PSR sort gate)” value is “low polyreactivity”.

On to “QVQLVESGGGLVQAGGSLRLSCAASGSIFWLYTMGWYRQAPGKERELVATITQSGSTYYADSVKGRFTISRDNAKNTVYLQMNSLKPEDTAVYYCAARVVWGPESDYWGQGTQVTVSS”, for which the “polyreactivity (PSR sort gate)” value is given as “low polyreactivity”.

In the case of “QVQLVESGGGLVQAGGSLRLSCAASGSIFWPNPMGGYRQAPGKERELVAGSTFSGGSTYADSVKGRFTISRDNAKNTVYLQMNSLKPEDTAVYYCAVVYYRDPRMDFWRQGTQVTVSS”, the “polyreactivity (PSR sort gate)” value is “high polyreactivity”.

For the sequence “QVQLVESGGGLVQAGGSLRLSCAASGSIFWRNAMGWYRQAPGKERELVAAISRVGSTNYADSVKGRFTISRDNAKNTVYLQMNSLKPEDTAVYYCAADGTVVRDFDYWGQGTQVTVSS”, the “polyreactivity (PSR sort gate)” value is “low polyreactivity”.

As to “QVQLVESGGGLVQAGGSLRLSCAASGSIFWRNVMGWYRQAPGKERELVAAISSGGSTYYADSVKGRFTISRDNAKNTVYLQMNSLKPEDTAVYYCAAPRYDYWGQGTQVTVSS”, the “polyreactivity (PSR sort gate)” value was “high polyreactivity”.

For the sequence “QVQLVESGGGLVQAGGSLRLSCAASGSIFWSYAMGWYRQAPGKERELVAAINWSGGRTYYADSVKGRFTISRDNAQNTVYLQMNSLKPEDTAVYYCNAPVHTAQGDEYDYWGQGTQVTVSS”, the “polyreactivity (PSR sort gate)” value is given as “high polyreactivity”.

For “QVQLVESGGGLVQAGGSLRLSCAASGSIFWSYAMGWYRQAPGKERELVAVINWSGGSTYYADSVKGRFTISRDNAKNTVYLQMNSLKPEDTAVYYCNKDLGPTKRPFTFDYWGQGTQVTVSS”, the “polyreactivity (PSR sort gate)” value was “low polyreactivity”.

Turning to “QVQLVESGGGLVQAGGSLRLSCAASGSIFWSYAMGWYRQATGKERELVAAITWSGGNTYADSVKGRFTISRDNAKNTVYLQMNSLKPEDTAVYYCAADPAHGTKWYVYPSHDDYWGQGTQVTVSS”, the “polyreactivity (PSR sort gate)” value was “low polyreactivity”.

Take “QVQLVESGGGLVQAGGSLRLSCAASGSIFWTNAMGWYRQAPGKERELVARITYSGGSTYSADSVKGRFTISRDNAKNTVYLQMNSLKPEDTAVYYCNARTHGWPYSRYYYWGQGTQVTVSS”: the “polyreactivity (PSR sort gate)” value is recorded as “high polyreactivity”.

As to “QVQLVESGGGLVQAGGSLRLSCAASGSIFWWNAMGWYRQAPGKERELVASIGDSTYYADSVKGRFTISRDNAKNTVYLQMNSLKPEDTAVYYCYAEVLNYLVFGYQLGYDYWGQGTQVTVSS”, the “polyreactivity (PSR sort gate)” value was “low polyreactivity”.

As for “QVQLVESGGGLVQAGGSLRLSCAASGSIFWYNDMGWYRQAPGKEREFVAAITWDDGSTYYADSVKGRFTISRDNAKNTVYLQMNSLKPEDTAVYYCAAYVWYYDPASGWFITDYDYWGQGTQVTVSS”, the “polyreactivity (PSR sort gate)” value is “high polyreactivity”.

Turning to “QVQLVESGGGLVQAGGSLRLSCAASGSIFWYNTMGWYRPAPGKERELVAAISKSGTSTYYADSVKGRFTISRDNAKNTVYLQMNSLKPEDTAVYYCAAALPGYGDYYYWGQGTQVTVSS”, the “polyreactivity (PSR sort gate)” value is on record as “high polyreactivity”.

In the case of “QVQLVESGGGLVQAGGSLRLSCAASGSIFWYNTMGWYRQAPGKERELVASISWDGGTYYADSVKGRFTISRDNAKNTVYLQMNSLKPEVTAVYYCNVAWYWGYDYWGQGTQVTVSS”, the “polyreactivity (PSR sort gate)” value is listed as “low polyreactivity”.

Turning to “QVQLVESGGGLVQAGGSLRLSCAASGSIFWYYAMGWYRQAPGKERELVAAISASGSSTYYADSVKGRFTISRDNAKNTVYLQMNSLKPEDTAVYDCAATYSLYNDWLYHYFPEEYDYWGQGTQVTVSS”, the “polyreactivity (PSR sort gate)” value is on record as “low polyreactivity”.

As for “QVQLVESGGGLVQAGGSLRLSCAASGSIFWYYAMGWYRQAPGKERELVAAISSGGSTYYADSVKGRYTISRDNAKNTVYLQMNSLKPEDTAVYYCAAGAFGQILNYWGQGTQVTVSS”, the “polyreactivity (PSR sort gate)” value was “high polyreactivity”.

Take “QVQLVESGGGLVQAGGSLRLSCAASGSIFYANAMGWYRQAPGKERELVAAISRSGGRTYYADSVKGRFTISRDNAKNTVYLQMNSLKPEDTAVYYCNAVYVSYTYQQTRSGGYDYWGQGTQVTVSS”: the “polyreactivity (PSR sort gate)” value is “high polyreactivity”.

In the case of “QVQLVESGGGLVQAGGSLRLSCAASGSIFYANVKGWSRQAPGKERELDATISISSSTNYADSVKGRFTISRDNAKNTVYLQMNSLKPEDTAVYYCNASFGHHYSYWVDTSYDYWGQGTQVTVSS”, the “polyreactivity (PSR sort gate)” value was “low polyreactivity”.

Turning to “QVQLVESGGGLVQAGGSLRLSCAASGSIFYAYAMGWYRQAPGKERELVAGINTRGGSTYYADSVKGRFTISRDNAKNTVYLQMNSLKPEDTAVYYCNARTLTVLEFDYWGQGTQVTVSS”, the “polyreactivity (PSR sort gate)” value is “low polyreactivity”.

Turning to “QVQLVESGGGLVQAGGSLRLSCAASGSIFYAYAMGWYRQAPGKERELVATITSGGSTNYADSVKGRFTISRDNAKNTVYLQMNSLKPEDTAVYYCAVDISYSLGGGFGYDYWGQGTQVTVSS”, the “polyreactivity (PSR sort gate)” value was “low polyreactivity”.

In the case of “QVQLVESGGGLVQAGGSLRLSCAASGSIFYAYYMGWYRQAPGKESELVAAINWSGDSTYYADSVKGRFTISRDNAKNTVYLQMNSLKPEDTAVYYCAAVSGSGDSGEYDYWGQGTQVTVSS”, the “polyreactivity (PSR sort gate)” value is on record as “low polyreactivity”.

With “QVQLVESGGGLVQAGGSLRLSCAASGSIFYDYALGWYRQAPGKERELVAAINSGDSTYYADSVKGRFTISRDNAKNTVYLQMNSLKPEDTAVYYCAATYFSPFIEYDYWGQGTQVTVSS”, the “polyreactivity (PSR sort gate)” value is “low polyreactivity”.

With “QVQLVESGGGLVQAGGSLRLSCAASGSIFYENTMGWYRQAPGKERELVASISGGGSTYADSVKGRFTISRDNAKHTVYLQMNSLKPEDTAVYYCNADSSTEYDYWGQGTQVTVSA”, the “polyreactivity (PSR sort gate)” value is “low polyreactivity”.

Consider “QVQLVESGGGLVQAGGSLRLSCAASGSIFYENVMGWYRQAPGKERELVAGISRSGGRTYYADSVKGRFTISRDNAKNTVYFQMNSLKPEDTAVYYCAALTPRNRYRKFDYWGQGTQVTVSS”, for which the “polyreactivity (PSR sort gate)” value is “high polyreactivity”.

For the sequence “QVQLVESGGGLVQAGGSLRLSCAASGSIFYEYAMGWYRQAPGKERELLASINRGGGSTYYADSVKGRFTISRDNAKNTVYLQMNSLKPEDTAVYYCAAQWKYRQSYLDYYWGQGTQVTVSS”, the “polyreactivity (PSR sort gate)” value was “low polyreactivity”.

In the case of “QVQLVESGGGLVQAGGSLRLSCAASGSIFYEYAMGWYRQAPGKERELVAAINWDGGTYYADSVKGRFTISRDNAKNTVYLQMNSLKPEDTAVYYCAKPYDWGVYSQSDSDYWGQGTQVTVSS”, the “polyreactivity (PSR sort gate)” value is on record as “low polyreactivity”.

As to “QVQLVESGGGLVQAGGSLRLSCAASGSIFYFNAMGWYRQAPGKERELVAAINYSGGSTYYADSVKGRFTISRDNAKNTVYLQMNSLKPEDTAVYYCAAVTYFGWYPYRMEYWGQGTQVTVSS”, the “polyreactivity (PSR sort gate)” value was “high polyreactivity”.

“QVQLVESGGGLVQAGGSLRLSCAASGSIFYFYAMGWYRQAPGKERELVAAITSGGSTYYADSVEGRFTISRDNAKNTVYLQMNSLKPEDTAVYYCAAQFYDLYHGTTYDYWGQGTQVTVSS”: the “polyreactivity (PSR sort gate)” value is on record as “high polyreactivity”.

“QVQLVESGGGLVQAGGSLRLSCAASGSIFYGNAMGWYRQAPGKERELVAAISSSGGSTYYADSVKGRFTISRDNAKNTVYLQMISLKPEDTAVYYCAADSTYYNSYDYWGQGTQVTVSS”: the “polyreactivity (PSR sort gate)” value was “low polyreactivity”.

Regarding “QVQLVESGGGLVQAGGSLRLSCAASGSIFYGNAMGWYRQAPGKERELVAAITRGTRTYYADSVKGRFTISRDNAKNTVYLQMNSLKPEDTAVYYCAAYLYVPYRYKYDYWGQGAQVTVSS”, the “polyreactivity (PSR sort gate)” value is given as “high polyreactivity”.

With “QVQLVESGGGLVQAGGSLRLSCAASGSIFYGNAMGWYRQAPGKERELVAGISWSGGSTYYADSVKGRFTISRDNAKNSVFLQMNSLKPEETAVYYCAAVRWGSYTLSDDYWGQGTQLTVSS”, the “polyreactivity (PSR sort gate)” value is given as “low polyreactivity”.

For the sequence “QVQLVESGGGLVQAGGSLRLSCAASGSIFYGYTMGWYRQEPGKERELVAAIRKSGGSTNYADSVKGRFTISRDNAKNNVYLQMNSLKPEDTAVYYCAAAYYRGRGYYWGQGTQVTVSS”, the “polyreactivity (PSR sort gate)” value is “high polyreactivity”.

Turning to “QVQLVESGGGLVQAGGSLRLSCAASGSIFYHNAMGWYRQAPGKERELVAAITWSGSTTYYADSVKGRFTISRDYAKNTVYLQMNSLKPEDTAVYYCNAGNRHGHYDYYWGQCTQVTVSS”, the “polyreactivity (PSR sort gate)” value is listed as “low polyreactivity”.

Consider “QVQLVESGGGLVQAGGSLRLSCAASGSIFYHYSMGWYRQAPGKERELVAAITRSGGSTYYADSVKGRFTISRDNAKNTVFLQMNSLNPEDTAVYYSAKDPDSYNFLTSNWYDYWGLGTQVTVSS”, for which the “polyreactivity (PSR sort gate)” value is reported as “low polyreactivity”.

For the sequence “QVQLVESGGGLVQAGGSLRLSCAASGSIFYIYAMVWYRQAPGKERELVATITRGGSSYADSVKGRFTISRDNAKNTVYFQMNSLIPEDTAVYYCAADVFKYWSQQTSTVYDYWGQGTQVTVSS”, the “polyreactivity (PSR sort gate)” value is on record as “high polyreactivity”.

Regarding “QVQLVESGGGLVQAGGSLRLSCAASGSIFYKYMGWNRQAPGKERELVAAISWSGGRTYYADSVKGRFTISRDNAKNTVYLQMNSLKPEDTAVYYCNRVVLWRIGDKAFEYWGQGTQVTVSS”, the “polyreactivity (PSR sort gate)” value was “high polyreactivity”.

For the sequence “QVQLVESGGGLVQAGGSLRLSCAASGSIFYLNAMGWYRMAPGKERELVATISNGGSTNYADSVKGRFTISRDNAKNTVYLQMNSLKPEDTAVYYCAAASGGTVVGEGDYWGQGTQVTVSS”, the “polyreactivity (PSR sort gate)” value is reported as “low polyreactivity”.

Consider “QVQLVESGGGLVQAGGSLRLSCAASGSIFYLNAMGWYRQAPGKERELVAAITNGGSTYADSVKGRFTISRDNAKNTVYLQMNSLKPEDTAGYYCATRSWELGDYWGQGTQVTVSS”, for which the “polyreactivity (PSR sort gate)” value is listed as “low polyreactivity”.

With “QVQLVESGGGLVQAGGSLRLSCAASGSIFYLYAMGLYRQAPGKERELVAAITSIGGSTYADSVKGRFTISRDNAKNTVYLQMNSLKPEDTAVYYCNTDEYPLTVQVQYYYWGQGTQVTVSS”, the “polyreactivity (PSR sort gate)” value was “low polyreactivity”.

Take “QVQLVESGGGLVQAGGSLRLSCAASGSIFYLYAMGWYRPAPGKERELVARITIRGGSTYYADSVKGRFTISRDNAKNTVYLQMNSLKPEDTAVYYCAARRPYGDYDYWGQGTQVTVSS”: the “polyreactivity (PSR sort gate)” value was “high polyreactivity”.

“QVQLVESGGGLVQAGGSLRLSCAASGSIFYLYAMGWYRQAPGKERELVAAISSGGSTNYADSVKGRFTISRDNAKNTVYLQMNSLKPEDTAVYYCAAGYKRLHWPKSDSFHGMYYWGQGTQVTVSS”: the “polyreactivity (PSR sort gate)” value is listed as “low polyreactivity”.
